B1: Azoarcus group I ribozyme (parent)
chain: GUGCCUUGCGCCGGGAAACCACGCAAGGGAUGGUGUCAAAUUCGGCGAAACCUAAGCGCCCGCCCGGGCGUAUGGCAACGCCGAGCCAAGCUUCGGCGCCUGCGCCGAUGAAGGUGUAGAGACUAGACGGCACCCACCUAAGGCAAACGCUAUGGUGAAGGCAUAGUCCAGGGAGUGGCGAAAGUCACACAAACCGG

Variants of: B1
Assay: reverse-splicing fitness (ratio to wild type); higher = more active; in vitro selection; Mg2+ level not given
Procedure, shortened: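 An in vitro group I ribozyme library with randomized positions was T7-transcribed and gel-purified. In triplicate, 10 pmol RNA in EPPS pH 7.5 was reacted with 50 pmoles of a 30-nt RNA substrate for 1 h at 37 °C across several added MgCl2 levels (1–48 mM), then stopped with EDTA. Products were reverse transcribed from a substrate-complementary primer, PCR-amplified and sequenced (HiSeq 4000). Fitness is a variant's read proportion after selection over that before, normalised to wild type.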

Point of comparison: A111U A145C C150A C169U U176A, reverse-splicing fitness 0.0157. Against it:
- A111U A120U C150G C169A — lower, 0.00749
- A111U A120U C150G C169A U176A — lower, 0.00451
- A111U A120U C150G C169A U176C — lower, 0.0037
- A111U A120U C150G C169A U176G — lower, 0.00232
- A111U A120U C150G C169G — lower, 0.00802
- A111U A120U C150G C169G U176A — lower, 0.00371
- A111U A120U C150G C169G U176C — lower, 0.00285
- A111U A120U C150G C169G U176G — lower, 0.00237
- A111U A120U C150G C169U — lower, 0.00855
- A111U A120U C150G C169U U176A — lower, 0.00272
- A111U A120U C150G C169U U176C — lower, 0.00454
- A111U A120U C150G C169U U176G — lower, 0.0029
- A111U A120U C150G U176A — lower, 0.00718
- A111U A120U C150G U176C — higher, 0.0189
- A111U A120U C150G U176G — lower, 0.00286
- A111U A120U C150U — higher, 0.374
- A111U A120U C150U C169A — lower, 0.00484
- A111U A120U C150U C169A U176A — lower, 0.00464
- A111U A120U C150U C169A U176C — lower, 0.00279
- A111U A120U C150U C169A U176G — lower, 0.00214
- A111U A120U C150U C169G — higher, 0.0274
- A111U A120U C150U C169G U176A — lower, 0.00847
- A111U A120U C150U C169G U176C — lower, 0.00679
- A111U A120U C150U C169G U176G — lower, 0.00213
- A111U A120U C150U C169U — higher, 0.0369
- A111U A120U C150U C169U U176A — lower, 0.0088
- A111U A120U C150U C169U U176C — lower, 0.0116
- A111U A120U C150U C169U U176G — lower, 0.00287
- A111U A120U C150U U176A — higher, 0.125
- A111U A120U C150U U176C — higher, 0.171
- A111U A120U C150U U176G — higher, 0.027
- A111U A120U C169A — lower, 0.00533
- A111U A120U C169A U176A — lower, 0.00255
- A111U A120U C169A U176C — lower, 0.00373
- A111U A120U C169A U176G — lower, 0.00214
- A111U A120U C169G — higher, 0.0555
- A111U A120U C169G U176A — lower, 0.00625
- A111U A120U C169G U176C — lower, 0.00937
- A111U A120U C169G U176G — lower, 0.00197
- A111U A120U C169U — higher, 0.0747
- A111U A120U C169U U176A — lower, 0.0126
- A111U A120U C169U U176C — higher, 0.0202
- A111U A120U C169U U176G — lower, 0.00332
- A111U A120U U176A — higher, 0.239
- A111U A120U U176C — higher, 0.296
- A111U A120U U176G — higher, 0.0683
- A111U A145C — higher, 0.974
- A111U A145C C150A — higher, 0.23
- A111U A145C C150A C169A — lower, 0.00817
- A111U A145C C150A C169A U176A — lower, 0.0128
- A111U A145C C150A C169A U176C — lower, 0.00656
- A111U A145C C150A C169A U176G — lower, 0.00617
- A111U A145C C150A C169G — lower, 0.00935
- A111U A145C C150A C169G U176A — higher, 0.0227
- A111U A145C C150A C169G U176C — lower, 0.0127
- A111U A145C C150A C169G U176G — lower, 0.00622
- A111U A145C C150A C169U — lower, 0.0131
- A111U A145C C150A C169U U176C — lower, 0.0105
- A111U A145C C150A C169U U176G — lower, 0.00676
- A111U A145C C150A U176A — higher, 0.103
- A111U A145C C150A U176C — higher, 0.127
- A111U A145C C150A U176G — higher, 0.0517
- A111U A145C C150G — higher, 0.426
- A111U A145C C150G C169A — lower, 0.00988
- A111U A145C C150G C169A U176A — lower, 0.0076
- A111U A145C C150G C169A U176C — lower, 0.00643
- A111U A145C C150G C169A U176G — lower, 0.00612
- A111U A145C C150G C169G — lower, 0.0108
- A111U A145C C150G C169G U176A — lower, 0.00774
- A111U A145C C150G C169G U176C — lower, 0.00846
- A111U A145C C150G C169G U176G — lower, 0.00549
- A111U A145C C150G C169U — higher, 0.0175
- A111U A145C C150G C169U U176A — lower, 0.00903
- A111U A145C C150G C169U U176C — lower, 0.0128
- A111U A145C C150G C169U U176G — lower, 0.00557
- A111U A145C C150G U176A — higher, 0.153
- A111U A145C C150G U176C — higher, 0.218
- A111U A145C C150G U176G — higher, 0.0277
- A111U A145C C150U — higher, 0.661
- A111U A145C C150U C169A — lower, 0.0113
- A111U A145C C150U C169A U176A — lower, 0.0117
- A111U A145C C150U C169A U176C — lower, 0.00769
- A111U A145C C150U C169A U176G — lower, 0.00703
- A111U A145C C150U C169G — higher, 0.0177
- A111U A145C C150U C169G U176A — higher, 0.0212
- A111U A145C C150U C169G U176C — lower, 0.0135
- A111U A145C C150U C169G U176G — lower, 0.00741
- A111U A145C C150U C169U — higher, 0.0312
- A111U A145C C150U C169U U176A — higher, 0.0173
- A111U A145C C150U C169U U176C — lower, 0.0152
- A111U A145C C150U C169U U176G — lower, 0.00571
- A111U A145C C150U U176A — higher, 0.399
- A111U A145C C150U U176C — higher, 0.436
- A111U A145C C150U U176G — higher, 0.189
- A111U A145C C169A — higher, 0.027
- A111U A145C C169A U176A — lower, 0.0105
- A111U A145C C169A U176C — lower, 0.00885
- A111U A145C C169A U176G — lower, 0.00602
- A111U A145C C169G — higher, 0.0589
- A111U A145C C169G U176A — higher, 0.0286
- A111U A145C C169G U176C — higher, 0.0232
- A111U A145C C169G U176G — lower, 0.00585
- A111U A145C C169U — higher, 0.108
- A111U A145C C169U U176A — higher, 0.0252
- A111U A145C C169U U176C — higher, 0.0265
- A111U A145C C169U U176G — lower, 0.0061
- A111U A145C U176A — higher, 0.757
- A111U A145C U176C — higher, 0.706
- A111U A145C U176G — higher, 0.329
- A111U A145G — higher, 0.921
- A111U A145G C150A — higher, 0.516
- A111U A145G C150A C169A — lower, 0.0132
- A111U A145G C150A C169A U176A — higher, 0.0172
- A111U A145G C150A C169A U176C — higher, 0.0233
- A111U A145G C150A C169A U176G — lower, 0.0068
- A111U A145G C150A C169G — lower, 0.0147
- A111U A145G C150A C169G U176A — higher, 0.0163
- A111U A145G C150A C169G U176C — higher, 0.0292
- A111U A145G C150A C169G U176G — lower, 0.00603
- A111U A145G C150A C169U — higher, 0.0213
- A111U A145G C150A C169U U176A — higher, 0.0173
- A111U A145G C150A C169U U176C — higher, 0.0191
- A111U A145G C150A C169U U176G — lower, 0.00686
- A111U A145G C150A U176A — higher, 0.238
- A111U A145G C150A U176C — higher, 0.299
- A111U A145G C150A U176G — higher, 0.0951
- A111U A145G C150G — higher, 0.359
- A111U A145G C150G C169A — lower, 0.0104
- A111U A145G C150G C169A U176A — lower, 0.0118
- A111U A145G C150G C169A U176C — lower, 0.0121
- A111U A145G C150G C169A U176G — lower, 0.00707
- A111U A145G C150G C169G — lower, 0.011
- A111U A145G C150G C169G U176A — lower, 0.00998
- A111U A145G C150G C169G U176C — lower, 0.0116
- A111U A145G C150G C169G U176G — lower, 0.00597
- A111U A145G C150G C169U — higher, 0.0181
- A111U A145G C150G C169U U176A — lower, 0.0111
- A111U A145G C150G C169U U176C — lower, 0.0136
- A111U A145G C150G C169U U176G — lower, 0.0076
- A111U A145G C150G U176A — higher, 0.0997
- A111U A145G C150G U176C — higher, 0.171
- A111U A145G C150G U176G — higher, 0.0223
- A111U A145G C150U — higher, 0.915
- A111U A145G C150U C169A — higher, 0.025
- A111U A145G C150U C169A U176A — lower, 0.0155
- A111U A145G C150U C169A U176C — higher, 0.017
- A111U A145G C150U C169A U176G — lower, 0.00732
- A111U A145G C150U C169G — higher, 0.0498
- A111U A145G C150U C169G U176A — higher, 0.0164
- A111U A145G C150U C169G U176C — higher, 0.0269
- A111U A145G C150U C169G U176G — lower, 0.00671
- A111U A145G C150U C169U — higher, 0.0923
- A111U A145G C150U C169U U176A — higher, 0.025
- A111U A145G C150U C169U U176C — higher, 0.0314
- A111U A145G C150U C169U U176G — lower, 0.00652
- A111U A145G C150U U176A — higher, 0.591
- A111U A145G C150U U176C — higher, 0.692
- A111U A145G C150U U176G — higher, 0.22
- A111U A145G C169A — higher, 0.0306
- A111U A145G C169A U176A — higher, 0.0211
- A111U A145G C169A U176C — higher, 0.0305
- A111U A145G C169A U176G — lower, 0.00593
- A111U A145G C169G — higher, 0.0699
- A111U A145G C169G U176A — higher, 0.0249
- A111U A145G C169G U176C — higher, 0.0358
- A111U A145G C169G U176G — lower, 0.00535
